Measurements taken from article PMC6524969, “A nanobody-based molecular toolkit provides new mechanistic insight into clathrin-coat initiation” (eLife, 2019).
Numbering of substitutions follows the chain as printed.

Experiments:
GST-EPS15 (1-314) [1] = molecular target: T1, GST-EPS15 (1-314) (human, UniProt P42566); assay: pull-down; GST fusion (50 μg, or increasing amounts) immobilised on glutathione-Sepharose; Nb in clarified E. coli periplasmic extract adjusted to 125 mM sodium chloride; 4°C, 60 min; supernatant and pellet on Coomassie-stained gels; settings: one partner purified
T1 construct: stop codon at 315 (S315*) in pGEX-5X-1; Printed molecular weight 60,924.7; also called GST-EPS15 EH1-3; source: E. coli BL21 codon plus RIL, purified (glutathione-Sepharose); not shown: GST, N-terminal, kept

GST-EPS15 (1-109) = molecular target: T2, GST-EPS15 (1-109) (Homo sapiens, UniProt P42566); assay: pull-down; quantitative titration; Nb E_142 fixed at 2 μM, immobilised GST-EPS15 (1-109) 0.5-20 μM or (1-314) 0.25-10 μM; PBS with 100 μg/ml BSA, 4°C, 60 min, 400 μl; Nb band in the supernatant quantified; apparent KD (half-maximal binding); settings: both partners purified
T2 construct: stop codon L110* in pGEX-5X-1; Printed molecular weight 38,271.3; also called EH1; source: E. coli BL21 codon plus RIL, purified (glutathione-Sepharose); not shown: GST, N-terminal, kept

GST-EPS15 (1-314) [2] = molecular target: T1, GST-EPS15 (1-314); assay: as above; settings: both partners purified
GST-EPS15R (1-365) = molecular target: T3, GST-EPS15R (1-365) (Homo sapiens, UniProt Q9UBC2); assay: pull-down; GST fusion (50 μg, or increasing amounts) immobilised on glutathione-Sepharose; Nb in clarified E. coli periplasmic extract adjusted to 125 mM sodium chloride; 4°C, 60 min; supernatant and pellet on Coomassie-stained gels; settings: one partner purified
T3 construct: Epidermal growth factor receptor substrate 15R (EPS15R, gene EPS15L1), H. sapiens, residues 1-365 (stop T366*), in pGEX-5X-1; also called EPS15R EH1R-3R; source: E. coli BL21 codon plus RIL, purified (glutathione-Sepharose)

[3] = molecular target: T4, native Eps15 in rat brain cytosol (Rattus norvegicus (brain cytosol, …, UniProt A0A8I5YC99)); assay: pull-down; called immunoprecipitation; purified His6-tagged Nb E_142 bound to Ni-NTA-agarose; K-562 cell lysate or rat brain cytosol; immunoblots; settings: one partner purified
T4 construct: Eps15, endogenous in rat brain cytosol; source: endogenous, rat brain cytosol

[4] = molecular target: T5, EPS15R in K-562 cell lysate (human (endogenous in K-562), UniProt Q9UBC2); assay: as above; settings: one partner purified
T5 construct: Epidermal growth factor receptor substrate 15R, endogenous in K-562 cells

[5] = molecular target: T6, endogenous EPS15 in HeLa cells (Homo sapiens, UniProt P42566); assay: immunostaining of cells or tissue; relocalisation in cells: Nb E_142 fusion tethered to endosomes (GFP-FYVE2) or mitochondria (Akap1) in transfected HeLa cells; endogenous EPS15 stained with antibodies, confocal microscopy; controls without the Nb module; settings: partners not purified
T6 construct: Epidermal growth factor receptor substrate 15, endogenous in HeLa cells, stained with anti-EPS15 antibodies; source: endogenous, HeLa SS6 and HeLa clone #40 cells
T6 sequence (P42566 whole entry, the tested form may be a part): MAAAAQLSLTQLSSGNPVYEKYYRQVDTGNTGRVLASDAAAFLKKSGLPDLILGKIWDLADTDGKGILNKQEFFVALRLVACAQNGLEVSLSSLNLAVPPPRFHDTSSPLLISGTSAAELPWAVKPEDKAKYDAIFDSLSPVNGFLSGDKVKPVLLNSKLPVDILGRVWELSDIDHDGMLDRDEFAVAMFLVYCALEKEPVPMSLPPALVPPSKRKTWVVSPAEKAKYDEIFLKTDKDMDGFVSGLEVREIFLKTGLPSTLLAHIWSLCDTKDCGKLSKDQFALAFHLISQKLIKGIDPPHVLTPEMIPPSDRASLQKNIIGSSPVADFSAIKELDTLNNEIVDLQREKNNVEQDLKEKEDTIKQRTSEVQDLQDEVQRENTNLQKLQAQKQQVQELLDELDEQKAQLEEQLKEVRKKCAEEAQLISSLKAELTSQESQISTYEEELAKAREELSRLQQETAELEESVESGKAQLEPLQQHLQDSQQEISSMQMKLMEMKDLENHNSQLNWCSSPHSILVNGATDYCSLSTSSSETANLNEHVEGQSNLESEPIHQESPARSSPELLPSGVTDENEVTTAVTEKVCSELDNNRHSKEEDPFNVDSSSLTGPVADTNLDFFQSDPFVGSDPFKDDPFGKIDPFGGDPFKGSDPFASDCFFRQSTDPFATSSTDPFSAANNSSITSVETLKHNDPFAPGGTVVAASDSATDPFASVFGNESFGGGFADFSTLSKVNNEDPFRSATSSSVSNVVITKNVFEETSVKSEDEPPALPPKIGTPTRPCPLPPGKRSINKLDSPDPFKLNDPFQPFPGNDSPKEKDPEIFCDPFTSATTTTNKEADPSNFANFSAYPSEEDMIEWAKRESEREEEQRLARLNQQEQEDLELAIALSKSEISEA

T1 sequence (P42566 1-314): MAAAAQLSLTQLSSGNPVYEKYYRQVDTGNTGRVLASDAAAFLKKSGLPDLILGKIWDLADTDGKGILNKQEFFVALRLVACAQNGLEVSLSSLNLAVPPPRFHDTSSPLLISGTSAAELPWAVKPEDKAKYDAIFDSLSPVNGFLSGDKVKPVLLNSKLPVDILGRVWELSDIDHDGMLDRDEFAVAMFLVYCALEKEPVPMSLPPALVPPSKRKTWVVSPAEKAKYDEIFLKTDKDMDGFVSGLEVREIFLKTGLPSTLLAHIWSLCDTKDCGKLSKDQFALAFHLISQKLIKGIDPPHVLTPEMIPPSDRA
T2 sequence (P42566 1-109): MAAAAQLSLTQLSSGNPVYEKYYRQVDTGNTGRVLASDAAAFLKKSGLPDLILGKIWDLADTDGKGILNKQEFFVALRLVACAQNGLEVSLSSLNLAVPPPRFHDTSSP
T3 sequence (Q9UBC2 1-365): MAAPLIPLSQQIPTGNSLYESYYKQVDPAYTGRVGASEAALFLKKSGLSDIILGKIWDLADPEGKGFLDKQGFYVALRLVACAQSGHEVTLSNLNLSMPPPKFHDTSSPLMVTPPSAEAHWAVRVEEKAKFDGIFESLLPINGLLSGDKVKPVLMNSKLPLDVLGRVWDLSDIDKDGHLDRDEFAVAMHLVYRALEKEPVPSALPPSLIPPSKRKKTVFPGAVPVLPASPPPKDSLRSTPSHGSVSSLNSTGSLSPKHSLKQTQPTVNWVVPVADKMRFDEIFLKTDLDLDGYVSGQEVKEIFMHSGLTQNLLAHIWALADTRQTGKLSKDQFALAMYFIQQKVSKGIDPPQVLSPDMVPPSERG
T5 sequence (Q9UBC2 whole entry): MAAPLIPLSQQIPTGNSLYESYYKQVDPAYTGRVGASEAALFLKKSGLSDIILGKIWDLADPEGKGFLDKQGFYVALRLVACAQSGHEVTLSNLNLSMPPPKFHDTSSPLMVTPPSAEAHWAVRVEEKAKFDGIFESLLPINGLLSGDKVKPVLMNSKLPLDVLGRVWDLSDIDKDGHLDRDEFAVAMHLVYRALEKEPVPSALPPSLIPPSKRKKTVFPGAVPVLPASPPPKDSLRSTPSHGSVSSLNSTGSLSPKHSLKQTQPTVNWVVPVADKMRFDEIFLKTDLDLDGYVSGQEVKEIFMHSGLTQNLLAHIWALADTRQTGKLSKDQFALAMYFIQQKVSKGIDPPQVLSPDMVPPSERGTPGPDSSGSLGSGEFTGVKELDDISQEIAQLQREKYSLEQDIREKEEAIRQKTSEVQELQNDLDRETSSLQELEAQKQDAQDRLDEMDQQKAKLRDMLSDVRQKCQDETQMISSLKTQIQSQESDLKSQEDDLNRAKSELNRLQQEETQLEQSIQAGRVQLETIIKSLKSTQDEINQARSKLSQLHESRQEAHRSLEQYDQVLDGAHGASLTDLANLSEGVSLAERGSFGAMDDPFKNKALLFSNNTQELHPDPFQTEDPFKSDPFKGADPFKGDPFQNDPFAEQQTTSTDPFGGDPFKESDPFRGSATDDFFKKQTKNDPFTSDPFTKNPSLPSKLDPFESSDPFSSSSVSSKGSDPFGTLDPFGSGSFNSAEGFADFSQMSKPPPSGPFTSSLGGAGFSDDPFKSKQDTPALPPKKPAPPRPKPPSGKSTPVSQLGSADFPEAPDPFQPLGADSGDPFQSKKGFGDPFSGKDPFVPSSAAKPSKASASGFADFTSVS

B1: Nb E_3 (VHH)
VHH: QVQLQESGGGLVQAGGSLRLSCAASGSIFSINAMGWYRQAPGKQRELVAAITSGGTTNYADSVKGRFTISRDNAKNTLYLQMNSLKPEDTAVYYCNLGGLRNPFGSWGQGTQVTVSS
notes: NPF tripeptide in CDR3, placed differently from that of Nb E_142; also called Nb E_3-His6; source: E. coli XL1-Blue (pHEN6c), periplasmic extract
**Q.** Does B1 bind (GST-EPS15 (1-314) [1])?
**A.** binds

B2: Nb E_142 (VHH)
VHH: QVQLQESGGGLVQAGGSLRLSCAASGFISSSSTMGWYRPAPGKQRELVASISSGGTTNYAESVKGRFTISRDNAKNTVYLQMDSLKPEDTAVYYCNMKSMNPFRRYDVWGQGTQVTVSS
notes: NPF(R) tripeptide in CDR3; Printed molecular weight of Nb E_142-His6: 13,683.2; also called Nb E_142-His6; His6-tagged Nb E_142; source: E. coli XL1-Blue (pHEN6c), periplasmic extract; also purified from the periplasmic extract (Ni-NTA-agarose, Sephacryl S-100); not shown: His6, C-terminal, kept
**Q.** With B2 as the binder, how does the Kd (GST-EPS15 (1-109)) read?
**A.** ~3000 nM

**Q.** And the Kd (GST-EPS15 (1-314) [2])?
**A.** ~2000 nM

**Q.** Does B2 bind (GST-EPS15R (1-365))?
**A.** binds

**Q.** Does B2 bind [3]?
**A.** binds

**Q.** Does B2 bind [4]?
**A.** binds

B3: GFP-FYVE2-desNb E_142 (VHH)
VHH: B2 VHH with S70R, C95Y, S119F
notes: Four glycine residues between the second FYVE domain and the Nb; also called GFP-FYVE2-dNb E_142; 3maj conditionally destabilized Nb E_142; source: HeLa SS6, transiently transfected, in cells; not shown: GFP, N-terminal, kept; tandem FYVE domain (FYVE2), N-terminal, kept
**Q.** Does B3 bind [5]?
**A.** binds

B4: Nb E_180 (VHH)
VHH: QVQLQESGGGSVQAGGSLRLSCAASGSIFSVNLMGWYREAPGKATEFVATVTAGGYTNVADSLKDRFTISMDNAKNTVYLQMNNLKPEDTAVYYCNMKSMNPFRRYDVWGQGTQVTVSS
notes: CDR3 identical to that of Nb E_142, 18 amino acid differences from Nb E_142; also called Nb E_180-His6; source: E. coli XL1-Blue (pHEN6c), periplasmic extract
**Q.** Does B4 bind (GST-EPS15 (1-314) [1])?
**A.** binds
